Bounds are passed on as bounds.

This test addresses 纯化的重组蛋白MDR-1 (原核表达, PET28a-MDR-1, 大肠杆菌BL21) (human) (UniProt P08183). In words: direct ELISA, purified antibody diluted 1:200 to 1:12800 on plate coated with purified MDR-1 protein (10 μg/ml), goat anti-mouse IgG-HRP, OD450. (In general: In an ELISA, binding on a coated surface is turned into a signal by an enzyme label.)
UniProt P08183, sequence (P08183 whole entry): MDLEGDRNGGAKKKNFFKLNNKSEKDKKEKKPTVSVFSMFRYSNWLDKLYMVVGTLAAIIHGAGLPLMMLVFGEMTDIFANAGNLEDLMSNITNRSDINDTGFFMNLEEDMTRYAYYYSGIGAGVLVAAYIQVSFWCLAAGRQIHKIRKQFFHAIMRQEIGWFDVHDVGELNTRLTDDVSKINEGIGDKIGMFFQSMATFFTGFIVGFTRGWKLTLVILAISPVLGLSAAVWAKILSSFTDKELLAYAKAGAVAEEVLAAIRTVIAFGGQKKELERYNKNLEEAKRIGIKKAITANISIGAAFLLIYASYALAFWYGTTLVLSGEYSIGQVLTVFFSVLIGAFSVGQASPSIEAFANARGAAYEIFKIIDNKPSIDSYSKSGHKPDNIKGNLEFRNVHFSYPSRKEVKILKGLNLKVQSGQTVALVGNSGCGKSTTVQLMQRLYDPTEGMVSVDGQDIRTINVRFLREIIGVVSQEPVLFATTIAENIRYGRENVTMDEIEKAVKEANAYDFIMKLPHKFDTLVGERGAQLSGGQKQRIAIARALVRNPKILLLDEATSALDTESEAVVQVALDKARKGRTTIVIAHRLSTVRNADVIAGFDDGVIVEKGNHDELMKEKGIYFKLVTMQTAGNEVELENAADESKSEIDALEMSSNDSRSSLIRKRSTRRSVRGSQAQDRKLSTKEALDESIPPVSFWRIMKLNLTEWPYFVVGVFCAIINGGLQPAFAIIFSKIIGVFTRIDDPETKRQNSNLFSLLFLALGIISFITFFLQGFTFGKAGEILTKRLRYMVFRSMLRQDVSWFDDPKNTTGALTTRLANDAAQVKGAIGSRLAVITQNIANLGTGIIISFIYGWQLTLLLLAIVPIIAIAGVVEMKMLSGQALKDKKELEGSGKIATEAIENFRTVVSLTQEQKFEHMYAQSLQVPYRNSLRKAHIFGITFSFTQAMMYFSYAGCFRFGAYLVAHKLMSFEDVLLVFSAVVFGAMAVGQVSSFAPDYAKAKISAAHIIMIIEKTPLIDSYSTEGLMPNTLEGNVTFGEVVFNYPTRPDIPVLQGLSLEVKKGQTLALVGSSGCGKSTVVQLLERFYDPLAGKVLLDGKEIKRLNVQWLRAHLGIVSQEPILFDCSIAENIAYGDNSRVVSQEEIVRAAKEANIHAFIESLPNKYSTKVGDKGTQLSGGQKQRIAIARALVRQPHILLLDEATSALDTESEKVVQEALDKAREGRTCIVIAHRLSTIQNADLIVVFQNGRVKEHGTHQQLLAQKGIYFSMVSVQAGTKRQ

B1: 小鼠抗人MDR-1单克隆抗体 (杂交瘤细胞株6C6, CGMCC No. 6917 产生) (antibody, part only; not given: light chain variable region, constant regions, V domains shown, part only)
VH: LGISTMNFGLSWVFLVLVLKGVQCEVKLVESGGGLVKPGGSLKLSCAASGFTFSNYAMSWVRQTPEKRLEWVASISSGGGGSTYYPDSVKGRFTISRDNARNILYLLMSSLRSEDTAMYYVCVMSLSEQSSCINLP
For B1, the ELISA滴度 (dilution (1:x)) was greater than 10000.

Source of the values: patent publication CN106754740A.
